# Test results published in PMC9898101.
# pKd: −log10 of the molar value.
# Tests used:
# MBP-ERS M487V (human) = assay: EMSA; conditions: 1 mM Mg2+; 5 ug/mL heparin (unit prefix not given); none (in vitro transcript); 25 mM Tris-HCl pH 7.5, 50 mM NaCl, 1 mM MgCl2, 1 mM DTT, 5 ug/mL heparin (prefix not given), 10 nM 32P-tRNA, room temperature 30 min; native 4-16% gel on …
# MBP-ERS I212T (human) = assay: EMSA; conditions: 1 mM Mg2+; 5 ug/mL heparin (unit prefix not given); none (in vitro transcript); 25 mM Tris-HCl pH 7.5, 50 mM NaCl, 1 mM MgCl2, 1 mM DTT, 5 ug/mL heparin (prefix not given), 10 nM 32P-tRNA, room temperature 30 min; native 4-16% gel on …
substance,measurement,setting,value
human tRNAGlu(TTC),pKd,MBP-ERS M487V (human),5.92
same,pKd,MBP-ERS I212T (human),5.70
